Measurements published in US10174106B2, “Anti-neurotensin long fragment antibodies and uses thereof” (INSERM (INSTITUT NATIONAL DE LA SANTÉ ET DE LA RECHERCHE …, priority 2014, dated 2019).

Legend:
LNM-R tumors [1] = assay: Cisplatin test, LNM-R xenograft; format: in vivo, NMRI nu/nu mice
Procedure: (§1) Cisplatin test, 1×10^6 LMN-R cells and 1×10^6 R-SI NTSR1 were subcutaneously inoculated in NMRI nu/nu mice, LMN-R in the left flank and R-SI NTSR1 in the right flank. When tumors generated by LMN-R reached an average volume of 95 mm^3, mice were randomized in 5 groups of 8 to 10 mice. Group 1 was administered with PBS, group 2 with antibody FLp26-8.2 (i.p. every other day, 15 mg/kg) for total of 13 times and group 3 with mouse IgG (i.p. every other day, 15 mg/kg). Group 4 was administered with PBS and cisplatin (1 mg/kg at day 1,3 5 7, 15, 17, and 19) and groups 5 with antibody FLp26-8.2 (i.p. every other day, 15 mg/kg) and cisplatin (1 mg/kg at day 1,3 5 7, 15, 17, and 19). The volume of tumor was measured every other day.

R-SI NTSR1 tumors [2] = assay: Cisplatin test, R-SI NTSR1 xenograft; format: in vivo, NMRI nu/nu mice; conditions: cisplatin 1 mg/kg day 1,3,5,7,15,17,19
Procedure: as §1

Hep-R1a cells = assay: Collagen invasion assay, Hep-R1a cells (Hep3B transfected with NTSR1); format: cell-based; conditions: expressing NTS and NTSR1, exposed to antibody
Procedure: (§2) The cell culture insert (8 μm, Beckton Dickinson®) was coated with type I collagen (100 μl/well, 4×10^2 μg/ml, Sigma®) at 37° C. 24 h before the assay. 1 million MCF, NTS-h, Hep 3B, HepR1a, and HepR2b cells were seeded in the insert with 250 μl of serum free medium in presence or absence of 7 μg antibodies FLp26-8.2. Outside the insert, 750 μl medium with 10% FCS was added in the well as chemoattractant. After 48 h of incubation, the non-invading cells and collagen are removed from the upper surface of the membrane by scrubbing with a cotton swab. Invading cells (those adhering to the bottom surface of the membrane) were fixed and stained with the Kwif diff stain kit (Thermo®) and the number of stained cells were counted with an inverted microscope at 200× magnification.

LNM-R tumors [3] = assay: Tumor xenograft, LNM-R lung cancer cells (NTS and NTSR1 expressing), left flank; format: in vivo, NMRI nu/nu mice; conditions: 15 mg/kg i.p. every other day
Procedure: (§3) 1×10^6 LMN-R cells and 1×10^6 R-SI NTSR1 were subcutaneously inoculated in NMRI nu/nu mice, LMN-R in the left flank and R-SI NTSR1 in the right flank. When tumors generated by LMN-R reached an average volume of 40 mm^3, mice were randomized in 2 groups, then administered antibody FLp26-8.2 (i.p. every other day, 15 mg/kg) for total 8 times. PBS was used as the vehicle control. The volume of tumor was measured daily.

MDA Si2 tumors = assay: Tumor xenograft, MDA Si2 cells (sh NTSR1), right flank; format: in vivo, NMRI nu/nu mice; conditions: 15 mg/kg i.p. every other day, vs PBS
Procedure: (§4) 3×10^6 MDA-MB 231 cells and 3×10^6 MDA si2 were subcutaneously inoculated in 100 μl of matrigel the left flank and the right flank of the NMRI nu/nu mice, respectively. When tumors generated by MDA reached an average volume of 50 mm^3, mice were randomized in 2 groups, then administered antibody FLp26-8.2 (i.p. every other day, 15 mg/kg) for total 12 times. PBS was used as the vehicle control.

R-SI NTSR1 tumors [4] = assay: Tumor xenograft, R-SI NTSR1 cells (LNM-R with NTSR1 sh-RNA), right flank; format: in vivo, NMRI nu/nu mice; conditions: 15 mg/kg i.p. every other day; vs PBS; same mice
Procedure: as §3

[5] = test system: NTS-h cells (MCF-7 overexpressing NTS); assay: Type I collagen invasion assay, MCF-7 cells overexpressing NTS (NTS-h); format: cell-based; conditions: NTS-overexpressing clone NTS-h; EGF 100 ng/mL; 7 μg antibody; 48 h
Procedure: The mouse #4 was selected. 5 clones were obtained. Clones 1-6, 7-12, 8-2, 13-1, and 16-12 were tested. […] The experiments were repeated twice.
as §2

MDA-MB231 tumors = assay: Tumor xenograft, MDA-MB 231 breast cancer cells, left flank; format: in vivo, NMRI nu/nu mice; conditions: 15 mg/kg i.p. every other day
Procedure: as §4

Hep-R1b cells = assay: Collagen invasion assay, Hep-R1b cells (Hep3B transfected with NTSR1); format: cell-based; conditions: expressing NTS and NTSR1, exposed to antibody
MCF-7 cells = assay: Type I collagen invasion assay, MCF-7 cells; format: cell-based; conditions: parental MCF-7; EGF 100 ng/mL; 7 μg antibody; 48 h
Procedure: as §2

CHO-NTSR1 cells = assay: Cell proliferation of CHO-NTSR1 cells treated with NTS or LNM-R conditioned media; format: cell-based; conditions: 2.8 μg antibody, 60% without antibody
Procedure: Cell Proliferation 20 000 CHO-NTSR1 cells were seeded in 48 well dishes, in 200 ul media 10% with FCS. […] Cells were treated for 40 h in 200 μl media with 2.5% FCS. Cellular proliferation was evaluated by counting using Beckman Coulter's cell counting.

| Molecule | tumor growth rates (LNM-R tumors [1]; cisplatin 1 mg/kg day 1,3,5,7,15,17,19, IgG 15 mg/kg i.p. every other day, compared to PBS) | tumor size (R-SI NTSR1 tumors [2]) | invasive rate of the cells (Hep-R1a cells) | tumor size as compared to controls (LNM-R tumors [3]; 8 times, vs PBS) [times smaller] | growth from D1 (LNM-R tumors [3]; PBS 24.68±4.05) [fold] | doubling time after 16 days of treatment (LNM-R tumors [3]; PBS control 3.43±0.34) [days] | doubling time (MDA Si2 tumors) | growth rate (MDA Si2 tumors) | tumor size (MDA Si2 tumors) | growth rate (R-SI NTSR1 tumors [4]) | size of the tumor (R-SI NTSR1 tumors [4]) | induction of invasiveness induced or not by EGF [5] | tumor growth (MDA-MB231 tumors; 24 days, compared to PBS) | growth rate from D1 (MDA-MB231 tumors; PBS 4.4±0.33) [fold] | doubling time after 24 days of treatment (MDA-MB231 tumors; control 11.63±1) [days] | invasive rate of the cells (Hep-R1b cells) | tumor size (LNM-R tumors [1]; FLp26-8.2 15 mg/kg i.p. every other day, with or without cisplatin 1 mg/kg) | induction of invasiveness induced or not by EGF (MCF-7 cells) | cellular growth inhibition with antibody added (CHO-NTSR1 cells; CM (LNM-R conditioned media) treated cells) [%] | cellular growth inhibition with antibody added (CHO-NTSR1 cells; NTS treated cells (10^-7 M)) [%] |
| --- | --- | --- | --- | --- | --- | --- | --- | --- | --- | --- | --- | --- | --- | --- | --- | --- | --- | --- | --- | --- |
| N.N.[Cl][Pt][Cl] [cisplatin, reference compound] | not altered | decreased | – | – | – | – | – | – | – | – | – | – | – | – | – | – | – | – | – | – |
| FLp26-8.2: NTS monoclonal antibody directed against NTS long fragment; VH SEQ ID NO:1, VL SEQ ID NO:5 (antibody, V domains shown, Synthetic VH Sequence; Synthetic VL sequence) VH: QIQLVQSGPELKKPGETVKISCKASGYTFTNYGMNWVKQAPGKGLKWMGWITTNTGEPTYAEEFKGRFAFSLETSASTAYLQINNLKNEDTATYFCARRAFAMDYWGQGTSVTVSS VL: DIVMTQAAPSVPVTPGESVSISCRSSKSLLHSNGNTYLYWFLQRPGQSPQLLIYRMSNLASGVPDRFSGSGSGTAFTLRISRVEAEDVGVYYCMQHLEYPYTFGGGTKLEIK | – | – | more drastic | 2.6 | 5.92±0.99 | 5.96 ± 0.55 | no difference | no difference | no difference | not different | not different | inhibited | strong reduction | 2.1±0.18 | 55.5 ± 32 | reduced | smaller | only in the NTS-overexpressing clones | 15 | 48 |
